Experimental data as given in patent publication WO2016155745A1 (dated 2016).
Blank lines part the entries; values can stand above or below the binder they belong to.

Experiments:
[1] = biological target: T1, full-length human recombinant PAD2 (human, UniProt Q9Y2J8 1-665); assay: ELISA, purified mAb 1:100 on PAD-coated plates (Fig. 2)
T1 construct: also called rhPAD2; recombinant human PAD2

[2] = biological target: T2, full-length human recombinant PAD3 (human, UniProt Q9ULW8 1-664); assay: as above
T2 construct: mature; Full-length recombinant protein coated on plates at 100 ng/mL
T2 sequence (looked up): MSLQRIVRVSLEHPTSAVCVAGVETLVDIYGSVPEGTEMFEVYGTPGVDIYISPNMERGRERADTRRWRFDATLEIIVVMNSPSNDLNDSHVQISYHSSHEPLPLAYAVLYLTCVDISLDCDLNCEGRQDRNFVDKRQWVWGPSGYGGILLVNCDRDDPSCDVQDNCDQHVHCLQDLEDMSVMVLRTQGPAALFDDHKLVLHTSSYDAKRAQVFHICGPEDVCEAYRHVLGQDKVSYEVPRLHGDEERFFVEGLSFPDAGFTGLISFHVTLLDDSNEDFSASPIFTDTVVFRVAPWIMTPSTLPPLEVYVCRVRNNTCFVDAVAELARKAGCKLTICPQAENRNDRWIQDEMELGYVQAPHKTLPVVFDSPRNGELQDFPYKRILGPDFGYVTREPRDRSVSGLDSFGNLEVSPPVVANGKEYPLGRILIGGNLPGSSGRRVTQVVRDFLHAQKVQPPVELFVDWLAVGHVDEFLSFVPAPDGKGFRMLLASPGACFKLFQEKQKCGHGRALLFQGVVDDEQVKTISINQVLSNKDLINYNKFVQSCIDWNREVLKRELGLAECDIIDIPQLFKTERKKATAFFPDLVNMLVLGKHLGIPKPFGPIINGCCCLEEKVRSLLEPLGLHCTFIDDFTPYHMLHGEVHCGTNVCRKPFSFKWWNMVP

[3] = biological target: full-length human recombinant PAD4 (human, UniProt Q9UM07 1-663); assay: as above
murine recombinant PAD2 = biological target: T3, murine recombinant PAD2 (mouse, UniProt Q08642 1-673, limits assumed); assay: ELISA, culture supernatant 1:20 on mPAD2-coated plates (Fig. 3)
T3 construct: also called mPAD2; murine PAD2

[4] = biological target: T1, full-length human recombinant PAD2; assay: ELISA, culture supernatant 1:20 on PAD2-coated plates (Fig. 3)

Sequence of full-length human recombinant PAD4 (Q9UM07 whole entry): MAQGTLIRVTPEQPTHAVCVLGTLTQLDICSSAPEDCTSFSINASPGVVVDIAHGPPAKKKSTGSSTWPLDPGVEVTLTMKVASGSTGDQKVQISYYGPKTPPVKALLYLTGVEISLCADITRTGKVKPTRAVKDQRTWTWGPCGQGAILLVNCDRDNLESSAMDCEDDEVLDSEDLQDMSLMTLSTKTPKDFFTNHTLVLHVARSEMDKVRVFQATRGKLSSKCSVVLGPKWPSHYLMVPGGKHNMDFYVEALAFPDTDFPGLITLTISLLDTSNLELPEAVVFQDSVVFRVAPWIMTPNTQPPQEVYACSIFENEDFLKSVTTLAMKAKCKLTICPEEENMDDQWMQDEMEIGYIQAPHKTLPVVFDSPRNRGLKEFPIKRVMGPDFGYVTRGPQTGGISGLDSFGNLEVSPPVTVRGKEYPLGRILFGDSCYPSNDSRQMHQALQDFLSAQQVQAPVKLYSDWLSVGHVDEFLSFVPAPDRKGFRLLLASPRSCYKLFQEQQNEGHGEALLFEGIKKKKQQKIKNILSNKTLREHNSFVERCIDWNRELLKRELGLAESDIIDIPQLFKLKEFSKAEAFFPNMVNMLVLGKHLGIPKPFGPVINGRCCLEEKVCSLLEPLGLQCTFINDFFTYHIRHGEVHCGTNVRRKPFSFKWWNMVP
T3 sequence (Q08642 whole entry): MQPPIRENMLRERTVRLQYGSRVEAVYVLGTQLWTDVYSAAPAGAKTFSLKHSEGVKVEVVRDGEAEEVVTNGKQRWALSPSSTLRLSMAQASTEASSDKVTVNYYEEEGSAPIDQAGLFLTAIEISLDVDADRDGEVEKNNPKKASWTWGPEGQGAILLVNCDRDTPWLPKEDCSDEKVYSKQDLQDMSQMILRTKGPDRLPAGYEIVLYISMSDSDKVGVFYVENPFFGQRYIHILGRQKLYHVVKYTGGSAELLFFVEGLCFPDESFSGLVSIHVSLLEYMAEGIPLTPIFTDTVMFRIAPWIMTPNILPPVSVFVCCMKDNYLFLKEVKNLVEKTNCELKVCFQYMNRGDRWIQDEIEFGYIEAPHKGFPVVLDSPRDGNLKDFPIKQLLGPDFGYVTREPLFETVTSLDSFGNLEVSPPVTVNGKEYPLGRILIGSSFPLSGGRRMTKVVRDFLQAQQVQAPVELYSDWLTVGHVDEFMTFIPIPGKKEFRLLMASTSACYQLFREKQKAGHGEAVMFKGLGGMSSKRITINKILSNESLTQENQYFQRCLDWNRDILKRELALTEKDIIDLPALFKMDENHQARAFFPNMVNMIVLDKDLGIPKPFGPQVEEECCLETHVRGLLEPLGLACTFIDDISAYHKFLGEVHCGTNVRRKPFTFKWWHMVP
T1 sequence (Q9Y2J8 whole entry): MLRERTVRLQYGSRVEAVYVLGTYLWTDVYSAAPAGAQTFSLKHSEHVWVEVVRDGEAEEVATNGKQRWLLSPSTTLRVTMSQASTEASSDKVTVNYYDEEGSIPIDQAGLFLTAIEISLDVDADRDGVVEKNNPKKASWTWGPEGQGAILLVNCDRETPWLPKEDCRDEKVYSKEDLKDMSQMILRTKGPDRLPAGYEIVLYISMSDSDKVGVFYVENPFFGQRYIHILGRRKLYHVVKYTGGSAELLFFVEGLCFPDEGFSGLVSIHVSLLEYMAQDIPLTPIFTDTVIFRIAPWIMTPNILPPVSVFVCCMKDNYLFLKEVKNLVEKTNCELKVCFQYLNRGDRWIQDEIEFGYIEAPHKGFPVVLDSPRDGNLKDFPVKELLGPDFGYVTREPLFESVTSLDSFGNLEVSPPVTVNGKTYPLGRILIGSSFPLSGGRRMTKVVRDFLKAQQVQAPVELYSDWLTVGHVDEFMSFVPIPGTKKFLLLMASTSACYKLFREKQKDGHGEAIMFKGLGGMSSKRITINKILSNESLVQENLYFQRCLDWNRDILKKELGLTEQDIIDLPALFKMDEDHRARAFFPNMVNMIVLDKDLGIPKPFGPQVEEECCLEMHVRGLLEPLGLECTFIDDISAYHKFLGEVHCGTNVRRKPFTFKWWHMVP

binding result [1]: binds
binding result [2]: binds
binding result [3]: binds
binding result (murine recombinant PAD2): binds
B1: mSol4 (antibody, V domains shown)
VH: LEESGGDLVKLGGSLKLSCAASGFTFSSYYMSWVRQTPEKRLELVAAIHSDGGNTYYPDTVKGRFTISRDNAKNTLYLQMSSLKSEDTALYYCARHSYYGSSYDYWGQGTTLTVSS
VL: DIVLTQSPLSLPVSLGDQASISCESSQSLVHSNGITYLHWYLQKPGQSPKLLIYKVSHRFSGVPDRFSGSGSGTDFTLKISRVEAVDLGVYFCSQSTHVPFTFGSGTKLEIKR
notes: also called cross-reactive anti-PAD antibody mSol4

binding result [2]: binds
binding result [3]: binds
binding result [4]: binds
binding result (murine recombinant PAD2): binds
B2: mSol3 (antibody, V domains shown)
VH: EVQLEESGADLVKPGASVKLSCKASGYTFTSYWMHWVKQRPGQGLEWIGEIIPSNGHTNYNEKFKSKATLTVDKSSSTAYMQLSSLTPEDSAVYYCARGRDFFYGFGDYWGQGTTLTVSS
VL: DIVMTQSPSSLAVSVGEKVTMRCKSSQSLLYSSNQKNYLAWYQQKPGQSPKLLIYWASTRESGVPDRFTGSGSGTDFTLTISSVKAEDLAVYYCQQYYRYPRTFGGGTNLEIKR
notes: also called cross-reactive anti-PAD antibody mSol3
